For data set [1], the target named is T1, Abz-LAETGK(Dnp)-CONH2 (N-terminus assumed; SMILES CC(C)C[C@H](NC(=O)c1ccccc1N)C(=O)N[C@@H](C)C(=O)N[C@@H](CCC(=O)O)C(=O)N[C@H](C(=O)NCC(=O)N[C@@H](CCCCNc1ccc([N+](=O)[O-])cc1[N+](=O)[O-])C(N)=O)[C@@H](C)O).
T1 peptide: [2Abz]LAETGK(Dnp)-NH2
The data set can be described thus: cell-based or functional assay.

Data set [2] deals with T2, Abz-LAETGK(Dnp)-CONH2.
T2 chain: LAETGK

Data set [3] deals with T3, Abz-LPETGK(Dnp)-CONH2.
T3 chain: LPETGK

The target in data set [4] is T4, Abz-LPESGK(Dnp)-CONH2 (N-terminus assumed; SMILES CC(C)C[C@H](NC(=O)c1ccccc1N)C(=O)N1CCC[C@H]1C(=O)N[C@@H](CCC(=O)O)C(=O)N[C@@H](CO)C(=O)NCC(=O)N[C@@H](CCCCNc1ccc([N+](=O)[O-])cc1[N+](=O)[O-])C(N)=O).
T4 peptide: [2Abz]LPESGK(Dnp)-NH2
Kind of data set: cell-based or functional assay.

Data set [5] deals with T5, Abz-LSETGK(Dnp)-CONH2.
T5 chain: LSETGK

Data set [6] has as its target T6, Abz-LPECGK(Dnp)-CONH2.
T6 chain: LPECGK

Data set [7] concerns the target T7, human fetuin A, endogenous in human plasma, P02765.
T7 chain: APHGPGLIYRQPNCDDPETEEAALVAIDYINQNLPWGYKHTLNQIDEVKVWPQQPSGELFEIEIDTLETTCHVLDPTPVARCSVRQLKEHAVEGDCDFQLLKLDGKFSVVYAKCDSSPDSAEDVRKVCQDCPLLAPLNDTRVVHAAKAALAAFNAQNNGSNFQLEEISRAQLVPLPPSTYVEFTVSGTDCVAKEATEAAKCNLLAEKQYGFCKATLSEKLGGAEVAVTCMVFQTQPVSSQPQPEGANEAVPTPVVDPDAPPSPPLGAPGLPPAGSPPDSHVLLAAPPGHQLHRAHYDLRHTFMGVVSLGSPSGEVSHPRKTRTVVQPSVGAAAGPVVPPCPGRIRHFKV

In data set [8] the target is T8, Abz-LPESGK(Dnp)-CONH2.
T8 chain: LPESGK

Data set [9] concerns the target T9, Abz-LPEAGK(Dnp)-CONH2.
T9 chain: LPEAGK

The target in data set [10] is T10, Gly-Gly-Gly-COOH.
T10 chain: GGG

In data set [11] the target is T11, eSrtA displayed on ICY200 yeast as a C-terminal Aga2p fusion (Staphylococcus aureus, UniProt Q2FV99 60-206).
T11 construct: the whole entry is named here; also called Yeast displaying eSrtA; S. cerevisiae displaying eSrtA; not shown: Aga2p, yeast display anchor
T11 chain: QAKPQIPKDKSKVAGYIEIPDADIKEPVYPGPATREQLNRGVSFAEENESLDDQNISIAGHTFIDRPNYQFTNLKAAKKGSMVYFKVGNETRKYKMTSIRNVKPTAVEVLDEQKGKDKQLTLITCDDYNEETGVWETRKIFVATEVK
Kind of data set: yeast-displayed eSrtA, 10 µM Btn-LAETGG against 100 nM to 1 mM LPETGG, cell biotinylation by flow cytometry. (Flow cytometry measures light scatter and fluorescence of single cells or particles in a stream.)

Residue numbers refer to the chain shown, from its start. Non-standard residues stand in square brackets, D forms with d. No end group written: not given here. *: point of attachment. Dnp = O=[N+]([O-])c1ccc(*)c([N+](=O)[O-])c1; 2Abz = Nc1ccccc1C(=O)O

B1: eSrtA(2A-3.5) (enzyme)
chain: T11 chain with K103R, V109I, I123F
Consider B1, for which the “specificity (relative cat. Efficiency, fold), by the kcat/Km cells LPETG over LAETG” value in data set [1] turned out to be 2.21 fold. For the same molecule, in data set [2], the Avg KM is 6370 µM; the Avg kcat/KM was determined as 180; the Km, LxExG stood at 7160 µM; the kcat/Km (Hz/M) is 175 Hz/M. Further, in data set [3], the Avg KM stood at 3750 µM; the Avg kcat/KM is 406; the Km, LxExG came to 4110 µM; the Specificity (relative catalytic efficiency, fold), LPETG over LAETG was determined as 2.25 fold. Moreover, the kcat/Km (Hz/M) in [3] amounted to 386 Hz/M.

B2: evolved sortase A (eSrtA) (enzyme)
chain: T11 chain
As for B2, the “specificity (relative cat. Efficiency, fold), by the kcat/Km cells LPETG over LPESG” value in data set [4] is 10.2 fold. In data set [5], the Michaelis-Menten constant (Km) (as a rule, the concentration of substrate that gives half-maximal velocity) amounted to 533 µM and the kcat/Km – broadly, the second-order rate constant that governs catalysis at low substrate concentration – was 192 M⁻¹ s⁻¹. Also, in data set [6], the Michaelis constant (Km) was found to be 72.5 µM and the kcat/Km is 48800 M⁻¹ s⁻¹. Moreover, in data set [2], the Km came to 6070 µM; the Km, LxExG came to 6160 µM; the Rel. Activity (fold below the enzyme's best substrate, LPETG) was determined as 103 fold; the kcat/Km was 223 M⁻¹ s⁻¹. Also, the kcat/Km (Hz/M) in data set [2] came out at 221 Hz/M. Moreover, in [3], the Km was 230 µM; the Km, LxExG is 208 µM; the kcat/Km stood at 23000 M⁻¹ s⁻¹; the kcat/Km (Hz/M) amounted to 27100 Hz/M. In data set [3], this molecule yielded a specificity (relative cat. Efficiency, fold), LPETG over LAETG of 123 fold. Further, in [7], the “conjugation efficiency in human plasma, with supplemental calcium (densitometry)” value is on record as 0.6% by eSrtA in the presence supplemental calcium; the “fetuin A conjugation efficiency with 10 mM added CaCl2, against eSrtA(4S-9)” value is reported as “only modest fetuin A conjugation efficiencies (90-fold lower than that of eSrtA(4S-9)) in the presence of 10 mM added CaCl2”; the “processing of fetuin A in human plasma without supplemental calcium” value is given as “eSrtA showed no processing of fetuin A without supplemental calcium”. In data set [8], the Michaelis-Menten constant (Km) is 318 µM; the Km, LxExG turned out to be 672 µM; the Rel. Activity (fold below the enzyme's best substrate, LPETG) was 4.9 fold; the kcat/Km worked out at 4650 M⁻¹ s⁻¹. Moreover, the kcat/Km (Hz/M) in data set [8] came out at 2650 Hz/M. Besides, in [9], the Michaelis-Menten constant (Km) turned out to be 83.4 µM and the specificity constant (kcat/Km) stood at 8900 M⁻¹ s⁻¹. In data set [10], the Km, GGG (uM); with LPETG peptide was found to be 2990 µM; the Km,GGG (µM); listed substrate LAETG amounted to 807 µM; the Km,GGG (µM); listed substrate LPEAG came out at 48400 µM; the Km,GGG (µM); listed substrate LPECG came out at 57000 µM. Besides, in data set [10], the Km,GGG (µM); listed substrate LPESG came out at 22000 µM, the Km,GGG (µM); listed substrate LPETG stood at 1620 µM and the Km,GGG (µM); listed substrate LSETG worked out at 337 µM.

B3: non-biotinylated LPETGG peptide (peptide)
peptide: LPETGG
Take B3: the inhibition constant (Ki) (in general, a measure of affinity in units of concentration, obtained from inhibition or displacement) in data set [11] is below 100 µM.

The values above are taken from US20160208233A1 (Harvard, published 2016).
